Molecular target: T1, human PLA2-GIB (mature, active form) (human, UniProt P04054 23-148)
T1 construct: Recombinant human PLA2GIB standard in the ELISA, and endogenous PLA2GIB of patient plasma in the functional assays; also called GIBsPLA2; sPLA2-GIB
Test: sandwich ELISA, coated capture mAb, recombinant human standard
Protocol: Sandwich ELISAs specific to proPLA2-GIB, PLA2GIB or both forms were performed using mAbs previously generated. For the detection of proPLA2GIB, the #8G11 mAb was used as a capture antibody and the #1C11 mAb was used as a revelation mAb. For the detection of PLA2GIB, the #14G9 mAb was used as a capture antibody and the #1C11 mAb was used as a revelation mAb. For the detection of both forms, the #7A10 mAb was used as a capture antibody and the #1C11 mAb was used as a revelation mAb. Typical assay conditions were as follows: #8G11- or #14G9-coated microplate was incubated for one hour with recombinant human proPLA2GIB or PLA2GIB standards (varying concentrations of protein in assay buffer) to generate a calibration curve. EDTA plasma samples were diluted (5- to 50-fold) in dilution buffer to their respective wells and the ELISA plate was incubated for 1 h at room temperature. […] Following washing with PBS containing 0.05% Tween 20, the binding of mAb was detected by treatment with a Streptavidin-HRP conjugate for 15 min at room temperature. TMB was added, reaction was stopped and absorbance at 450 nm was determined on a microplate reader. Signals were analyzed with a 4-parameter fit analysis using Prism™ software (Graph Pad).

T1 sequence (P04054 23-148): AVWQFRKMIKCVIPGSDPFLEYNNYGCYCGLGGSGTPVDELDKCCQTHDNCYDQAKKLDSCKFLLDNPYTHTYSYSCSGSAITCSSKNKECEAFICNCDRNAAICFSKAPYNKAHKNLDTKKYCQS

B1: monoclonal antibody 14G9 (antibody, V domains shown)
VH: QVQLQQPGAELVKPGASVKLSCKASGYTFTNYWIHWVKRRPGQGLEWIGNIDPSDTRTHYNQKFKDKATLAVDKSSSTAYMQLSSLTSEDSAVFYCARQTLYYEALDYWGQGTTLTVSS
VL: DIVMTQSHKLMSTSVGDRVSITCKASQDVSTAVAWYQEKPGQSPKLLIYWASTRHTGVPNRFTGSRSGTDYTLTISSVQAEDLALYYCQQDYSTPPTFGAGTKLELKR
notes: also called #14G9 mAb; clone 14G9
B1: binds.
